Here are results for 3 molecules from paper PMC13035910, “Dbf4-dependent kinase finetunes Ino80 function at chromosome replication origins” (Nature Communications, 2026).

Sequences and labels used below:
B3: Ino80 subunit of the INO80 complex (natural protein, UniProt P53115 1-1489, looked up)
chain: MSLAVLLNKEDKDISDFSKTTAGKSAKKNSRERVADVAPTRVLDKKQAYLSQLNSEFNRIKRRDSIEQLYQDWKFINLQEFELISEWNQQSKDWQFDNTNDSQDLHFKKLYRDMSMINKEWAEYQSFKNANLSDIINEKDADEDEEDDEDELEDGEEDMEEDEASTGRHTNGKSMRGNGIQKSRKKDAAAAAAIGKAIKDDQTHADTVVTVNGDENEDGNNGEDEDNDNDNENNNDNDNDNENENDNDSDNDDEEENGEEDEEEEEIEDLDEEDFAAFEEQDDNDDEDFNPDVEKRRKRSSSSSSSTKLSMNSLSLITSKKINKNITINSDRPKIVRELIKMCNKNKHQKIKKRRFTNCIVTDYNPIDSKLNIKITLKQYHVKRLKKLINDAKREREREEALKNNVGLDGNDLDNDEDGSESHKRRKLNNNTANGADDANKRKFNTRHGLPTYGMKMNAKEARAIQRHYDNTYTTIWKDMARKDSTKMSRLVQQIQSIRSTNFRKTSSLCAREAKKWQSKNFKQIKDFQTRARRGIREMSNFWKKNEREERDLKKKIEKEAMEQAKKEEEEKESKRQAKKLNFLLTQTELYSHFIGRKIKTNELEGNNVSSNDSESQKNIDISALAPNKNDFHAIDFDNENDEQLRLRAAENASNALAETRAKAKQFDDHANAHEEEEEEDELNFQNPTSLGEITIEQPKILACTLKEYQLKGLNWLANLYDQGINGILADEMGLGKTVQSISVLAHLAENHNIWGPFLVVTPASTLHNWVNEISKFLPQFKILPYWGNANDRKVLRKFWDRKNLRYNKNAPFHVMVTSYQMVVTDANYLQKMKWQYMILDEAQAIKSSQSSRWKNLLSFHCRNRLLLTGTPIQNSMQELWALLHFIMPSLFDSHDEFNEWFSKDIESHAEANTKLNQQQLRRLHMILKPFMLRRVKKNVQSELGDKIEIDVLCDLTQRQAKLYQVLKSQISTNYDAIENAATNDSTSNSASNSGSDQNLINAVMQFRKVCNHPDLFERADVDSPFSFTTFGKTTSMLTASVANNNSSVISNSNMNLSSMSSNNISNGKFTDLIYSSRNPIKYSLPRLIYEDLILPNYNNDVDIANKLKNVKFNIFNPSTNYELCLFLSKLTGEPSLNEFFRVSTTPLLKRVIERTNGPKNTDSLSFKTITQELLEVTRNAPSEGVMASLLNVEKHAYEREYLNCIQRGYHPNVSAPPVTIEVLGSSHVTNSINNELFDPLISQALSDIPAITQYNMHVKKGIPVEDFPKTGLFPEPLNKNFSSNISMPSMDRFITESAKLRKLDELLVKLKSEGHRVLIYFQMTKMMDLMEEYLTYRQYNHIRLDGSSKLEDRRDLVHDWQTNPEIFVFLLSTRAGGLGINLTAADTVIFYDSDWNPTIDSQAMDRAHRLGQTRQVTVYRLLVRGTIEERMRDRAKQKEQVQQVVMEGKTQEKNIKTIEVGENDSEVTREGSKSISQDGIKEAASALA
notes: Ino80, motor ATPase and scaffold subunit of the INO80 complex, budding yeast; endogenous protein with chromosomally inserted tag; Stood in the cross-linking assay as part of the whole purified complex; also called Ino80 scaffold; motor ATPase Ino80; source: endogenously expressed in S. cerevisiae (S288c background; wild-type strain and yPB5), purified within the INO80 or INO80-AA complex …

What all share (assay): cross-linking; DSBU cross-linking with mass spectrometry of the purified wild-type INO80 complex; 58 uM DSBU, 20 min, 30 C, 1200 rpm; 25 mM HEPES-NaOH pH 7.2, 300 mM NaCl, 5% glycerol, 1 mM DTT, 4 mM MgCl2; repeated with an independent batch
Conditions in all cases: both partners purified

In assay [1] the target is B3.
In assay [2] the target is T1, Ies1 subunit of the INO80 complex (S. cerevisiae (endogenous, S288c …, UniProt P43579 1-692)).
T1 construct: Ies1, N-module subunit of INO80, budding yeast; endogenous protein; Stood in the cross-linking assay as part of the whole purified complex; source: endogenously expressed in S. cerevisiae (S288c background; wild-type strain and yPB5), purified within the INO80 or INO80-AA complex (anti-FLAG M2 resin, Mono Q)
T1 sequence (looked up): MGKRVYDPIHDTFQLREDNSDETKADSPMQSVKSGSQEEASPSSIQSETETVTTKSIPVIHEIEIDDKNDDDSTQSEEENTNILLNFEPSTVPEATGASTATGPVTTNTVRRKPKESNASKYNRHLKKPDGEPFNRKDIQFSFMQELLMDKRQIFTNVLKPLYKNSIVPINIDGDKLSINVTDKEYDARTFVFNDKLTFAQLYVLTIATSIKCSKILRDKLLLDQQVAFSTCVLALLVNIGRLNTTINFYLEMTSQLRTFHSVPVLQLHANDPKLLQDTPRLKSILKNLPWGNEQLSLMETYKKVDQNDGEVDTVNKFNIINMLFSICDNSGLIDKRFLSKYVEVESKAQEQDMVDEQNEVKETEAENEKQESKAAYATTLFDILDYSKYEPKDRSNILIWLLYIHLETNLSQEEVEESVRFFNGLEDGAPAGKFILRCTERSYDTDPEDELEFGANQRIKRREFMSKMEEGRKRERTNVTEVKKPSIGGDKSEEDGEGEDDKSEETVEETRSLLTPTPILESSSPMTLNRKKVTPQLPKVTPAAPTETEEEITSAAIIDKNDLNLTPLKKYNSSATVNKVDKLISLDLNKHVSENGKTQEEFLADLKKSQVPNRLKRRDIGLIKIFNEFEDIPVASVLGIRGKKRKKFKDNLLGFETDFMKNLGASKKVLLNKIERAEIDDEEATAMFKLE

Assay [3] has as its target T2, A-module of the INO80 complex (Arp4/Arp8/Act1(actin)/Taf14/Ies4) (S. cerevisiae (endogenous, S288c …, UniProt P80428 1-489; Q12386 1-881; P60010 1-375; P35189 1-244; Q08561 1-116).
T2 construct: Arp4, A-module subunit of INO80, budding yeast; endogenous protein; Arp8, A-module subunit of INO80, budding yeast; endogenous wild-type protein; Act1 (actin), A-module subunit of INO80, budding yeast; Taf14, A-module subunit of INO80, budding yeast; Ies4, A-module subunit of INO80, budding yeast; Stood in the cross-linking assay as part of the whole purified wild-type complex; also called ARP8 …

B1: N-module of the INO80 complex (Nhp10/Ies1/Ies3/Ies5) (complex)
chain 1: MSVEEKKRRLEELKDQNVVLGLAIQRSRLSVKRLKLEYGVLLERLESRIELDPELNCEDPLPTLASFKQELLTKPFRKSKTKRHKVKERDPNMPKRPTNAYLLYCEMNKERIRQNGSLDVTRDLAEGWKNLNEQDRKPYYKLYSEDRERYQMEMEIYNKKISNIDADDDKEENEQKIKNNEEGSSTKVADSKGGEDGSLVSSN
chain 2: MGKRVYDPIHDTFQLREDNSDETKADSPMQSVKSGSQEEASPSSIQSETETVTTKSIPVIHEIEIDDKNDDDSTQSEEENTNILLNFEPSTVPEATGASTATGPVTTNTVRRKPKESNASKYNRHLKKPDGEPFNRKDIQFSFMQELLMDKRQIFTNVLKPLYKNSIVPINIDGDKLSINVTDKEYDARTFVFNDKLTFAQLYVLTIATSIKCSKILRDKLLLDQQVAFSTCVLALLVNIGRLNTTINFYLEMTSQLRTFHSVPVLQLHANDPKLLQDTPRLKSILKNLPWGNEQLSLMETYKKVDQNDGEVDTVNKFNIINMLFSICDNSGLIDKRFLSKYVEVESKAQEQDMVDEQNEVKETEAENEKQESKAAYATTLFDILDYSKYEPKDRSNILIWLLYIHLETNLSQEEVEESVRFFNGLEDGAPAGKFILRCTERSYDTDPEDELEFGANQRIKRREFMSKMEEGRKRERTNVTEVKKPSIGGDKSEEDGEGEDDKSEETVEETRSLLTPTPILESSSPMTLNRKKVTPQLPKVTPAAPTETEEEITSAAIIDKNDLNLTPLKKYNSSATVNKVDKLISLDLNKHVSENGKTQEEFLADLKKSQVPNRLKRRDIGLIKIFNEFEDIPVASVLGIRGKKRKKFKDNLLGFETDFMKNLGASKKVLLNKIERAEIDDEEATAMFKLE
chain 3: MKFEDLLATNKQVQFAHAATQHYKSVKTPDFLEKDPHHKKFHNADGLNQQGSSTPSTATDANAASTASTHTNTTTFKRHIVAVDDISKMNYEMIKNSPGNVITNANQDEIDISTLKTRLYKDNLYAMNDNFLQAVNDQIVTLNAAEQDQETEDPDLSDDEKIDILTKIQENLLEEYQKLSQKERKWFILKELLLDANVELDLFSNRGRKASHPIAFGAVAIPTNVNANSLAFNRTKRRKINKNGLLENIL
chain 4: MPSKDPESVIDKEIRKISARNDELIKQDGTLKREYTTLLRKVSSVITVLNSIDDADTGSAETELPRLISQATVEKVPELKWYNDQISLITEKLEDDEDIEVPEELMDAYTLYKETPLLYNDTHTP
notes: Nhp10, N-module subunit of INO80, budding yeast; endogenous protein; Ies1, N-module subunit of INO80, budding yeast; Ies3, N-module subunit of INO80, budding yeast; Ies5, N-module subunit of INO80, budding yeast; Stood in the cross-linking assay as part of the whole purified complex; also called NHP10 module; N-module subunits; source: endogenously expressed in S. cerevisiae (S288c background; …)
As for B1, in assay [1], the binding result is “binds”.

B2: the rest of the N-module of the INO80 complex (Nhp10/Ies3/Ies5) (complex)
chain 1: MSVEEKKRRLEELKDQNVVLGLAIQRSRLSVKRLKLEYGVLLERLESRIELDPELNCEDPLPTLASFKQELLTKPFRKSKTKRHKVKERDPNMPKRPTNAYLLYCEMNKERIRQNGSLDVTRDLAEGWKNLNEQDRKPYYKLYSEDRERYQMEMEIYNKKISNIDADDDKEENEQKIKNNEEGSSTKVADSKGGEDGSLVSSN
chain 2: MKFEDLLATNKQVQFAHAATQHYKSVKTPDFLEKDPHHKKFHNADGLNQQGSSTPSTATDANAASTASTHTNTTTFKRHIVAVDDISKMNYEMIKNSPGNVITNANQDEIDISTLKTRLYKDNLYAMNDNFLQAVNDQIVTLNAAEQDQETEDPDLSDDEKIDILTKIQENLLEEYQKLSQKERKWFILKELLLDANVELDLFSNRGRKASHPIAFGAVAIPTNVNANSLAFNRTKRRKINKNGLLENIL
chain 3: MPSKDPESVIDKEIRKISARNDELIKQDGTLKREYTTLLRKVSSVITVLNSIDDADTGSAETELPRLISQATVEKVPELKWYNDQISLITEKLEDDEDIEVPEELMDAYTLYKETPLLYNDTHTP
notes: Nhp10, N-module subunit of INO80, budding yeast; endogenous protein; Ies3, N-module subunit of INO80, budding yeast; Ies5, N-module subunit of INO80, budding yeast; source: endogenously expressed in S. cerevisiae (S288c background; wild-type strain and yPB5), purified within the INO80 or INO80-AA complex (anti-FLAG M2 resin, Mono Q); copies: + +
As for B2, in assay [2], the binding result was “binds”.
For the molecule B3, in assay [3], the binding result is recorded as “binds”.
